# Assay results: patent CN114031685A
# B1: 抗SARS-CoV-2全人源单克隆抗体ZW2G10 (antibody, V domains shown)
# VH: EVQLVESGGGLVQPGRSLRLSCAASGFTFDDYAMHWVRQAPGKGLEWVSGITWNSGTIGYADSVKGRFIISRDNAKNSLHLQMNSLRVEDTALYYCAKDNSDYSGYYWELENYGMDVWGQGTTVTVSS
# VL: QSVLTQPPSVSGAPGQRVTISCTGSSSNIGAGYDVHWYQQLPGTAPKLLIYDNNNRPSGVPDRFSGSKSGTSASLAITGLQAEDEADYYCQSFDSSLSGVVFGGGTRLTVLR
# Experiments:
# [1] = biological target: SARS-CoV-2 Alpha株 S-ECD蛋白 (SARS-CoV-2 Alpha株 (B.1.1.7))
# [2] = biological target: SARS-CoV-2 Beta株 S-ECD蛋白 (SARS-CoV-2 Beta株 (B.1.351))
# [3] = biological target: SARS-CoV-2 Delta株 S-ECD蛋白 (SARS-CoV-2 Delta株 (B.1.617.2))
# [4] = biological target: SARS-CoV-2 Gamma株 S-ECD蛋白 (SARS-CoV-2 Gamma株 (P.1))
# [5] = biological target: SARS-CoV-2 Omicron株 S-ECD蛋白 (SARS-CoV-2 Omicron株 (B.1.1.529))
binder,measurement,setting,value
B1,Kd,[1],0.166 nM
same,Kd,[2],0.518 nM
same,Kd,[3],5.45 nM
same,Kd,[4],0.615 nM
same,Kd,[5],0.765 nM
